The target in the data set is TaRAV1 (GST fusion) (Triticum aestivum, UniProt A0A3B6A018 1-392). Put plainly: EMSA; LightShift Chemiluminescent EMSA kit (Pierce), manufacturer's protocol; buffer, salt, pH and temperature not given. The conditions noted are these: protein: recombinant; tags: GST; label: biotin. In general terms: A gel shift assay detects complexes by their altered migration in electrophoresis.
Chain of TaRAV1 (GST fusion) (A0A3B6A018 entry or part of it): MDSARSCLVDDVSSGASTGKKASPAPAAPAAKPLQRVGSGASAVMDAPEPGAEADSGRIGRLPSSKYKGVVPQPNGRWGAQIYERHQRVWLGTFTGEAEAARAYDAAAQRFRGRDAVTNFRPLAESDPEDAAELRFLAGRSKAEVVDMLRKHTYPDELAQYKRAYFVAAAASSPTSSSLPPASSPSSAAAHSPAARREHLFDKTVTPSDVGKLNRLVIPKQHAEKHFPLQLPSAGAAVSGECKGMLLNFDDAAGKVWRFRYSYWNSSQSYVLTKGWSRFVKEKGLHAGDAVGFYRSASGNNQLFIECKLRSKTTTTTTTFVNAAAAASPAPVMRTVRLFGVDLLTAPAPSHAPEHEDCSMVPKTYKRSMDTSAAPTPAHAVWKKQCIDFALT

B1: probe with mutated CAACA and CACCTG elements (dsDNA)
DNA 1: CGGCATGTATAAACAATAGACTCGACGGCATGTATAAACAATAGAC
DNA 2: GTCTATTGTTTATACATGCCGTCGAGTCTATTGTTTATACATGCCG
Regarding B1, the binding result is “no binding”.

B2: probe with CAACA and CACCTG elements (dsDNA)
DNA 1: CGGCAACAATAAACACCTGACTCGACGGCAACAATAAACACCTGAC
DNA 2: GTCAGGTGTTTATTGTTGCCGTCGAGTCAGGTGTTTATTGTTGCCG
As to B2, the binding result is on record as “binds”.

These data come from paper PMC9408559, “Genome-Wide Analysis of the RAV Gene Family in Wheat and Functional Identification of TaRAV1 in Salt Stress”.
